Reference: patent publication US20230029453A1 (Janssen / Centocor, published 2023)

How the values were obtained:
Experiment in all cases: UV peptide exchange; HLA class I ELISA
[1] = target: T1, HLA-A*01:01 (human, biotinylated heavy chain)
T1 construct: Conditional HLA class I complex (heavy chain + B2M) first held by a UV-labile peptide; the tested peptide is exchanged in after UV cleavage
Protocol: (§1) The HLA class I ELISA is an enzyme immunoassay based on the detection of beta2-microglobulin (B2M) of (peptide-stabilized) HLA class I complexes. To this end streptavidin was bound onto polystyrene microtiter wells. […] Subsequently, horseradish peroxidase (HRP)-conjugated antibody to human B2M was added. […] In the latter case B2M was removed during the washing step. After removal of non-bound HRP conjugate by washing, a substrate solution was added to the wells. A coloured product formed in proportion to the amount of intact HLA complex present in the samples. After the reaction was terminated by the addition of a stop solution, absorbance was measured in a microtiter plate reader.
(§2) Higher percentages correspond to stronger binding to the HLA allele.

[2] = target: T2, HLA-A*02:01 (human, biotinylated heavy chain)
T2 construct: Conditional HLA class I complex as for m1
Protocol: as §1, §2

[3] = target: T3, HLA-A*03:01 (human, biotinylated heavy chain)
T3 construct: Conditional HLA class I complex as for m1
Protocol: as §1, §2

[4] = target: T4, HLA-A*24:02 (human, biotinylated heavy chain)
T4 construct: Conditional HLA class I complex as for m1
Protocol: as §1, §2

[5] = target: T5, HLA-B*07:02 (human, biotinylated heavy chain)
T5 construct: Conditional HLA class I complex as for m1
Protocol: as §1, §2

[6] = target: T6, HLA-B*08:01 (human, biotinylated heavy chain)
T6 construct: Conditional HLA class I complex as for m1
Protocol: as §1, §2

| Binder | exchange rate with Pos [1] [%] | exchange rate with Pos [2] [%] | exchange rate with Pos [3] [%] | exchange rate with Pos [4] [%] | exchange rate with Pos [5] [%] | exchange rate with Pos [6] [%] |
| --- | --- | --- | --- | --- | --- | --- |
| NMVENGCYL (Synthetic 9-mer) [P59 9-mer NMVENGCYL (FOXA1 F254V)] | 2.2 | 11.9 | 4.5 | -0.5 | 7.5 | 5.5 |
| IQYSCMGLM (Synthetic 9-mer) [P50 9-mer IQYSCMGLM (AR W742C)] | 2.3 | 8.8 | 5.5 | 0.1 | 10.4 | 4.7 |
| NSKMALNSL (Synthetic 9-mer) [P35 9-mer NSKMALNSL (TMPRSS2-ERG fusion)] | 2.5 | 12.5 | 4.2 | 0.2 | 12.1 | 13.7 |
